Assay [1] addresses T1, human LAG-3 expressed on CHO cells (human, UniProt P18627 29-525).
T1 construct: also called CHO cells expressing human LAG-3
T1 sequence: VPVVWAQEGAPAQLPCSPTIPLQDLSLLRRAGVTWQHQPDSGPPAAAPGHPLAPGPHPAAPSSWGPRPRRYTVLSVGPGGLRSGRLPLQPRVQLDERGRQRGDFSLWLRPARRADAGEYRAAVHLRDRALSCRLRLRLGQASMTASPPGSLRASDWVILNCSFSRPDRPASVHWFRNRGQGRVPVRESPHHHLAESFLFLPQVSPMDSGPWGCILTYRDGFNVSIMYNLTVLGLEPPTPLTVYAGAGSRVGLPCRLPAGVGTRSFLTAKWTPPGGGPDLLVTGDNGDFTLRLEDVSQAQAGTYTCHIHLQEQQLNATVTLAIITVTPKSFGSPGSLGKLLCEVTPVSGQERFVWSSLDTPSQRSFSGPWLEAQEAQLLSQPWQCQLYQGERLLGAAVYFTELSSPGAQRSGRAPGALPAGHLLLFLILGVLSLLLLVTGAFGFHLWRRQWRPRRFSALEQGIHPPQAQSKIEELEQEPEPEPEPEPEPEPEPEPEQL
In words: FACS on CHO cells expressing human LAG-3; column LAG-3 / Cell binding (EC50 nM). As for the experimental part: The mixture was equilibrated for 30 minutes at room temperature, and washed three times with FACS buffer (PBS containing 1% BSA). FITC-conjugated anti-human Fc antibody (Jackson ImmunoResearch) used as secondary antibody was then added and incubated for 15 minutes at room temperature. Cells were washed again with FACS buffer and analyzed by flow cytometry. Data was analyzed with PRISM™ (GraphPad Software, San Diego, Calif.) using non-linear regression, and EC₅₀ values were calculated.

Assay [2] has as its target T2, His-tagged LAG-3 protein (Homo sapiens (Human), UniProt P18627 29-450, limits assumed).
T2 construct: SPR analyte; not shown: His tag
T2 sequence: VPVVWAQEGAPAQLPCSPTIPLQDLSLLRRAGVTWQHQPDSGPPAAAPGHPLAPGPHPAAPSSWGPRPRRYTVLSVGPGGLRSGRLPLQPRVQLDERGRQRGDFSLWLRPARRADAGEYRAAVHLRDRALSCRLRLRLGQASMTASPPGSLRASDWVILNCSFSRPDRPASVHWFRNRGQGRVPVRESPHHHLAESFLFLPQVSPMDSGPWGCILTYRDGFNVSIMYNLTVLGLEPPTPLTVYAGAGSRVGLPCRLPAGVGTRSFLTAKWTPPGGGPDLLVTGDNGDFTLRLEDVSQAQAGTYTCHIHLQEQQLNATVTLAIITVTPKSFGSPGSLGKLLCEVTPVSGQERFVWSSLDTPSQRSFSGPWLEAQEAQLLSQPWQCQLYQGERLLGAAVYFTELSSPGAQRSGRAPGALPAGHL
In words: SPR (BIACORE T200), His-tagged LAG-3 as analyte over immobilized binder; column LAG-3 / Affinity (nM). The text has this: Binding curves at different analyte concentrations were used to calculate the kinetic parameters kₒₙ, koff and Kd (FIGS. 14A-14K).
For orientation: Surface plasmon resonance follows binding to a sensor surface in real time, without labels.

In assay [3] the target is T3, LAG-3 Fc fusion protein having a biotin-label (Homo sapiens (Human), UniProt P18627 29-450, limits assumed, biotin label (site not stated)).
T3 construct: not shown: Fc
T3 sequence: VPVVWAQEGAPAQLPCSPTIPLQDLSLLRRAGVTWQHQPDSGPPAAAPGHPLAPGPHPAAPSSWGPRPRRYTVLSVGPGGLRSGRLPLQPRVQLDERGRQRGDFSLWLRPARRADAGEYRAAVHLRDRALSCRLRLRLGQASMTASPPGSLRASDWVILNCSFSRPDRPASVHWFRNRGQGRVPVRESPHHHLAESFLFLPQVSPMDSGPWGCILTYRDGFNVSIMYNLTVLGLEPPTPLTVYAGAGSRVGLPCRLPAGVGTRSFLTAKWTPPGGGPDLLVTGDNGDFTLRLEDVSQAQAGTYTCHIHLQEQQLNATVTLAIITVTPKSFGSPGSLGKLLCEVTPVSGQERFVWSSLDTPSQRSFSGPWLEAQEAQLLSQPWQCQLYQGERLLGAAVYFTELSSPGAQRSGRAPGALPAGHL
The experiment in a line: FACS competition, binding of biotinylated LAG-3 Fc to MHC class II on A375 cells blocked; column LAG-3 / Ligand competition (IC50 nM). As for the experimental part:
(§1) Each mixture was equilibrated for 30 minutes at room temperature, and washed three times with FACS buffer (PBS containing 1% BSA). PE/Cy5 Streptavidin secondary antibody was then added to each mixture and incubated for 15 minutes at room temperature. Subsequently, the cells were washed again with FACS buffer and analyzed by flow cytometry. Data was analyzed with PRISM™ (GraphPad Software, San Diego, Calif.) using non-linear regression, and IC₅₀ values were calculated.

Assay [4] concerns the target T4, human TIGIT expressed on CHO cells (human, UniProt Q495A1 22-244).
T4 construct: also called CHO cells expressing human TIGIT
T4 sequence: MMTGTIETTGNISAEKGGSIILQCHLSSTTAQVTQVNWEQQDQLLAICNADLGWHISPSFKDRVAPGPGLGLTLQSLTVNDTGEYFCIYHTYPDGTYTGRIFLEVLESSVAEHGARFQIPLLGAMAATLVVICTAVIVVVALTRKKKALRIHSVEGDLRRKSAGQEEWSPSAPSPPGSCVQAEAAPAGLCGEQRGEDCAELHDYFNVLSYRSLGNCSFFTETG
In words: FACS competition on CHO cells expressing human TIGIT, blocked ligand biotinylated hCD155 Fc; column TIGIT / Ligand competition (IC50 nM). As for the experimental part: as §1

Assay [5] concerns the target T4, human TIGIT expressed on CHO cells. In words: FACS on CHO cells expressing human TIGIT; column TIGIT / Cell binding (EC50 nM). As for the experimental part: The mixture was equilibrated for 30 minutes at room temperature, and washed three times with FACS buffer (PBS containing 1% BSA). FITC-conjugated anti-human Fc antibody (Jackson ImmunoResearch) used as secondary antibody was then added and the mixture was incubated for 15 minutes at room temperature. Cells were washed again with FACS buffer and analyzed by flow cytometry. Data were analyzed with PRISM™ (GraphPad Software, San Diego, Calif.) using non-linear regression, and EC₅₀ values were calculated.

The target in assay [6] is T5, His-tagged TIGIT protein (Homo sapiens (Human), UniProt Q495A1 22-141).
T5 construct: SPR analyte; not shown: His tag
T5 sequence: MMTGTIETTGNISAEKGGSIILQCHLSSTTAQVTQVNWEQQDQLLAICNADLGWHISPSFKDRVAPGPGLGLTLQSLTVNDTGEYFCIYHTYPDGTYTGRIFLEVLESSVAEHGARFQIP
In words: SPR (BIACORE T200), His-tagged TIGIT as analyte over captured binder; column TIGIT / Affinity (nM). The text has this:
Binding curves at different analyte concentrations were used to calculate the kinetic parameters kₒₙ, koff and Kd (FIGS. 13A-13K).

Drawing on patent publication US20200369770A1 (NANJING LEGEND BIOTECH, published 2020), this text covers EC50, Kd and IC50 for 2 molecules.

B1: VHH2 HCAb (antibody, human IgG4 S228P, V domains shown)
VH: EVQLVESGGGLVQPGGSLRLSCAASGYTVSSYCMGWFRQAPGKGREGVSAIDSDGSVSYADSVKGRFTISKDNSKNTLYLQMNSLRAEDTAVYFCAADLCWVDQDQGEYNTWGQGTLVTVSS
notes: positive control for LAG-3; also called anti-LAG-3 VHH2 HCAb
B1: the EC50 in assay [1] worked out at 1.82 nM. Besides, the Kd in assay [2] was 0.45 nM. In assay [3], the IC50 amounted to 11 nM.

B2: AS19584VH28 HCAb (antibody, human IgG4 S228P, V domains shown)
VH: EVQLVESGGGLVQPGGSLRLSCAASGYKYGVYSMGWFRQAPGKGLEGVSAICSGGRTTYSDSVKGRFTISRDNSNQILYLQMNSLRAEDTAVYYCAARPLWTGDCDLSSSWYKTWGQGTLVTVSS
notes: positive control for TIGIT; also called anti-TIGIT AS19584VH28 HCAb
Take B2: the IC50 in assay [4] is 8.61 nM. For the same molecule, it took 4.99 nM to reach a half-maximal effect in assay [5] (EC50). Further, the dissociation constant Kd in assay [6] came to 0.44 nM.

One may read the EC50 as the midpoint of the concentration-response curve. What is called Kd is the free concentration of one partner at which half of the binding sites on the other are occupied at equilibrium, for simple one-to-one binding. A low value points to tighter binding. As a reminder, the IC50 is the concentration that gives 50% inhibition. Read a high IC50 as a need for much substance.
